B1: SFPQ-276–598 (domain or fragment)
chain: EGFKANLSLLRRPGEKTYTQRCRLFVGNLPADITEDEFKRLFAKYGEPGEVFINKGKGFGFIKLESRALAEIAKAELDDTPMRGRQLRVRFATHAAALSVRNLSPYVSNELLEEAFSQFGPIERAVVIVDDRGRSTGKGIVEFASKPAARKAFERCSEGVFLLTTTPRPVIVEPLEQLDDEDGLPEKLAQKNPMYQKERETPPRFAQHGTFEYEYSQRWKSLDEMEKQQREQVEKNMKDAKDKLESEMEDAYHEHQANLLRQDLMRRQEELRRMEELHNQEMQKRKEMQLRQEEERRRREEEMMIRQREMEEQMRRQREESYS
B2: SFPQ-276–598/NONO-53–312 heterodimer (complex)
chain 1: B1 chain
chain 2: EGLTIDLKNFRKPGEKTFTQRSRLFVGNLPPDITEEEMRKLFEKYGKAGEVFIHKDKGFGFIRLETRTLAEIAKVELDNMPLRGKQLRVRFACHSASLTVRNLPQYVSNELLEEAFSVFGQVERAVVIVDDRGRPSGKGIVEFSGKPAARKALDRCSEGSFLLTTFPRPVTVEPMDQLDDEEGLPEKLVIKNQQFHKEREQPPRFAQPGSFEYEYAMRWKALIEMEKQQQDQVDRNIKEAREKLEMEMEAARHEHQVMLM
B3: SFPQ-369–598 (domain or fragment)
chain: HAAALSVRNLSPYVSNELLEEAFSQFGPIERAVVIVDDRGRSTGKGIVEFASKPAARKAFERCSEGVFLLTTTPRPVIVEPLEQLDDEDGLPEKLAQKNPMYQKERETPPRFAQHGTFEYEYSQRWKSLDEMEKQQREQVEKNMKDAKDKLESEMEDAYHEHQANLLRQDLMRRQEELRRMEELHNQEMQKRKEMQLRQEEERRRREEEMMIRQREMEEQMRRQREESYS
B4: SFPQ-276–535 (domain or fragment)
chain: EGFKANLSLLRRPGEKTYTQRCRLFVGNLPADITEDEFKRLFAKYGEPGEVFINKGKGFGFIKLESRALAEIAKAELDDTPMRGRQLRVRFATHAAALSVRNLSPYVSNELLEEAFSQFGPIERAVVIVDDRGRSTGKGIVEFASKPAARKAFERCSEGVFLLTTTPRPVIVEPLEQLDDEDGLPEKLAQKNPMYQKERETPPRFAQHGTFEYEYSQRWKSLDEMEKQQREQVEKNMKDAKDKLESEMEDAYHEHQANLL

Key:
crystal structure = biological target: the molecule itself; experiment: crystal structure
SAXS = biological target: the molecule itself; experiment: SAXS

| Protein | stoichiometry N (crystal structure) | binding result (SAXS) |
| --- | --- | --- |
| B1 | 2 |  |
| B2 |  | binds |
| B3 | 2 |  |
| B4 | 2 |  |

— publication PMC4402515 (Nucleic Acids Research, 2015)
